Experimental findings from publication PMC6212729 (Nucleic Acids Research, 2018) are described below.

B2: Human WT emerin fragment from amino acid 1 to amino acid 187 (EmN) (domain or fragment, UniProt P50402 1-187, looked up)
chain: MDNYADLSDTELTTLLRRYNIPHGPVVGSTRRLYEKKIFEYETQRRRLSPPSSSAASSYSFSDLNSTRGDADMYDLPKKEDALLYQSKGYNDDYYEESYFTTRTYGEPESAGPSRAVRQSVTSFPDADAFHHQVHDDDLLSSSEEECKDRERPMYGRDSAYQSITHYRPVSASRSSLDLSYYPTSSS

Series [1] deals with Human Barrier-to-Autointegration Factor (BAF) with all cysteines mutated in alanine (human) (UniProt O75531). Briefly: ITC.
For series [2] the target is unchanged. The experiment in a line: crystal structure.
Series [3] deals with the molecule itself. Briefly: negative-staining electron microscopy.
Series [4] concerns the target Human Barrier-to-Autointegration Factor (BAF) with all cysteines mutated in alanine (human) (UniProt O75531). The experiment in a line: ITC. This is another data set of the same source.
Series [5] addresses T1, GFP-BAF (full length BAF) (UniProt O75531 1-89).
T1 sequence (looked up): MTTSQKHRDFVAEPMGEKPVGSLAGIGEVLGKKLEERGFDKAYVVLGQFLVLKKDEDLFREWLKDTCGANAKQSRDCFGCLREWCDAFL
Briefly: proximity ligation.

Series [6] concerns the target B2. Briefly: NMR titration.

Molecule “LamIgF mutant R471C (from UniProt P02545 411-566) (domain or fragment)” yielded a fold decrease of affinity against LamIgF WT in series [1] of 5 fold.
The same measure, in the same setting: to “LamIgF mutant A529V (from UniProt P02545 411-566) (domain or fragment)” belongs 5 fold.
On to “Human Barrier-to-Autointegration Factor (BAF) with all cysteines mutated in alanine (from UniProt O75531 2-76) (natural protein)”, for which, in series [2], the stoichiometry N was found to be 2.

B1: Human WT emerin fragment from amino acid 67 to amino acid 221 (EmC) (domain or fragment, UniProt P50402 67-221, looked up)
chain: TRGDADMYDLPKKEDALLYQSKGYNDDYYEESYFTTRTYGEPESAGPSRAVRQSVTSFPDADAFHHQVHDDDLLSSSEEECKDRERPMYGRDSAYQSITHYRPVSASRSSLDLSYYPTSSSTSFMSSSSSSSSWLTRRAIRPENRAPGAGLGQDR
For the molecule B1, in series [3], the binding result was “binds”.
On to B2, for which, in series [3], the binding result is “binds”. In addition, the Kd in series [4] was found to be 700 nM.

B3: FLAG-mature lamin A (aa 1 to aa 646) A529V (natural protein, UniProt P02545 1-646, looked up)
chain: METPSQRRATRSGAQASSTPLSPTRITRLQEKEDLQELNDRLAVYIDRVRSLETENAGLRLRITESEEVVSREVSGIKAAYEAELGDARKTLDSVAKERARLQLELSKVREEFKELKARNTKKEGDLIAAQARLKDLEALLNSKEAALSTALSEKRTLEGELHDLRGQVAKLEAALGEAKKQLQDEMLRRVDAENRLQTMKEELDFQKNIYSEELRETKRRHETRLVEIDNGKQREFESRLADALQELRAQHEDQVEQYKKELEKTYSAKLDNARQSAERNSNLVGAAHEELQQSRIRIDSLSAQLSQLQKQLAAKEAKLRDLEDSLARERDTSRRLLAEKEREMAEMRARMQQQLDEYQELLDIKLALDMEIHAYRKLLEGEEERLRLSPSPTSQRSRGRASSHSSQTQGGGSVTKKRKLESTESRSSFSQHARTSGRVAVEEVDEEGKFVRLRNKSNEDQSMGNWQIKRQNGDDPLLTYRFPPKFTLKAGQVVTIWAAGAGATHSPPTDLVWKAQNTWGCGNSLRTVLINSTGEEVAMRKLVRSVTVVEDDEDEDGDDLLHHHHGSHCSSSGDPAEYNLRSRTVLCGTCGQPADKASASGSGAQVGGPISSGSSASSVTVTRSYRSVGGSGGGSFGDNLVTRSY
For B3, in series [5], the “PLA signals as percent of WT lamin A” value was ~50 % of WT.

B4: FLAG-mature lamin A (aa 1 to aa 646) R435C (natural protein, UniProt P02545 1-646, looked up)
chain: METPSQRRATRSGAQASSTPLSPTRITRLQEKEDLQELNDRLAVYIDRVRSLETENAGLRLRITESEEVVSREVSGIKAAYEAELGDARKTLDSVAKERARLQLELSKVREEFKELKARNTKKEGDLIAAQARLKDLEALLNSKEAALSTALSEKRTLEGELHDLRGQVAKLEAALGEAKKQLQDEMLRRVDAENRLQTMKEELDFQKNIYSEELRETKRRHETRLVEIDNGKQREFESRLADALQELRAQHEDQVEQYKKELEKTYSAKLDNARQSAERNSNLVGAAHEELQQSRIRIDSLSAQLSQLQKQLAAKEAKLRDLEDSLARERDTSRRLLAEKEREMAEMRARMQQQLDEYQELLDIKLALDMEIHAYRKLLEGEEERLRLSPSPTSQRSRGRASSHSSQTQGGGSVTKKRKLESTESRSSFSQHACTSGRVAVEEVDEEGKFVRLRNKSNEDQSMGNWQIKRQNGDDPLLTYRFPPKFTLKAGQVVTIWAAGAGATHSPPTDLVWKAQNTWGCGNSLRTALINSTGEEVAMRKLVRSVTVVEDDEDEDGDDLLHHHHGSHCSSSGDPAEYNLRSRTVLCGTCGQPADKASASGSGAQVGGPISSGSSASSVTVTRSYRSVGGSGGGSFGDNLVTRSY
For the molecule B4, the “PLA signals as percent of WT lamin A” value in series [5] is ~50 % of WT.

B5: FLAG-mature lamin A (aa 1 to aa 646) K542N (natural protein, UniProt P02545 1-646, looked up)
chain: METPSQRRATRSGAQASSTPLSPTRITRLQEKEDLQELNDRLAVYIDRVRSLETENAGLRLRITESEEVVSREVSGIKAAYEAELGDARKTLDSVAKERARLQLELSKVREEFKELKARNTKKEGDLIAAQARLKDLEALLNSKEAALSTALSEKRTLEGELHDLRGQVAKLEAALGEAKKQLQDEMLRRVDAENRLQTMKEELDFQKNIYSEELRETKRRHETRLVEIDNGKQREFESRLADALQELRAQHEDQVEQYKKELEKTYSAKLDNARQSAERNSNLVGAAHEELQQSRIRIDSLSAQLSQLQKQLAAKEAKLRDLEDSLARERDTSRRLLAEKEREMAEMRARMQQQLDEYQELLDIKLALDMEIHAYRKLLEGEEERLRLSPSPTSQRSRGRASSHSSQTQGGGSVTKKRKLESTESRSSFSQHARTSGRVAVEEVDEEGKFVRLRNKSNEDQSMGNWQIKRQNGDDPLLTYRFPPKFTLKAGQVVTIWAAGAGATHSPPTDLVWKAQNTWGCGNSLRTALINSTGEEVAMRNLVRSVTVVEDDEDEDGDDLLHHHHGSHCSSSGDPAEYNLRSRTVLCGTCGQPADKASASGSGAQVGGPISSGSSASSVTVTRSYRSVGGSGGGSFGDNLVTRSY
As for B5, the “PLA signals as percent of WT lamin A” value in series [5] was ~50 % of WT.

B6: FLAG-mature lamin A (aa 1 to aa 646) R527H (natural protein, UniProt P02545 1-646, looked up)
chain: METPSQRRATRSGAQASSTPLSPTRITRLQEKEDLQELNDRLAVYIDRVRSLETENAGLRLRITESEEVVSREVSGIKAAYEAELGDARKTLDSVAKERARLQLELSKVREEFKELKARNTKKEGDLIAAQARLKDLEALLNSKEAALSTALSEKRTLEGELHDLRGQVAKLEAALGEAKKQLQDEMLRRVDAENRLQTMKEELDFQKNIYSEELRETKRRHETRLVEIDNGKQREFESRLADALQELRAQHEDQVEQYKKELEKTYSAKLDNARQSAERNSNLVGAAHEELQQSRIRIDSLSAQLSQLQKQLAAKEAKLRDLEDSLARERDTSRRLLAEKEREMAEMRARMQQQLDEYQELLDIKLALDMEIHAYRKLLEGEEERLRLSPSPTSQRSRGRASSHSSQTQGGGSVTKKRKLESTESRSSFSQHARTSGRVAVEEVDEEGKFVRLRNKSNEDQSMGNWQIKRQNGDDPLLTYRFPPKFTLKAGQVVTIWAAGAGATHSPPTDLVWKAQNTWGCGNSLHTALINSTGEEVAMRKLVRSVTVVEDDEDEDGDDLLHHHHGSHCSSSGDPAEYNLRSRTVLCGTCGQPADKASASGSGAQVGGPISSGSSASSVTVTRSYRSVGGSGGGSFGDNLVTRSY
For B6, in series [5], the “PLA signals as percent of WT lamin A” value is ~50 % of WT.

B7: Human wild-type lamin A/C fragment from amino acid 411 to amino acid 566 (LamIgF) (domain or fragment, UniProt P02545 411-566, looked up)
chain: GGGSVTKKRKLESTESRSSFSQHARTSGRVAVEEVDEEGKFVRLRNKSNEDQSMGNWQIKRQNGDDPLLTYRFPPKFTLKAGQVVTIWAAGAGATHSPPTDLVWKAQNTWGCGNSLRTALINSTGEEVAMRKLVRSVTVVEDDEDEDGDDLLHHHH
Regarding B7, in series [6], the binding result is reported as “binds”.
